Experimental data as given in US20160237160A1, “ANTI-TWEAKR ANTIBODIES AND USES THEREOF” (BAYER PHARMA AKTIENGESELLSCHAFT, priority 2013, published 2016).
Residue numbers refer to the chain shown, from its start.

B1: 18.3.3(TPP-2193): reference anti-TWEAKR antibody, murine IgG2a, from WO2009/020933; SEQ ID NO 129/130 (protein)
light: DIVLTQSPASLAVSLGQRATISCKASQSVSTSTYSYMQWYQQRPGQSPKLLIKYASKLDSGVPARFSGSGSGTDFTLNIHPVEEEDTATYYCQHSWELPYTFGGGTRLEIKRADAAPTVSIFPPSSEQLTSGGASVVCFLNNFYPKDINVKWKIDGSERQNGVLNSWTDQDSKDSTYSMSSTLTLTKDEYERHNSYTCEATHKTSTSPIVKSFNRNEC
heavy: EVKLGESGGGLVQPGGSMKLSCVASGFPFTKYWMNWVRQSPEKGLEWVAEIRLKSDNYATHYAESAKGRFTISRDDSRSSVYLQMNNLRAEDTAIYYCSPTYADTMDYWGQGTSVTVSSAKTTAPSVYPLAPVCGDTTGSSVTLGCLVKGYFPEPVTLTWNSGSLSSGVHTFPAVLQSDLYTLSSSVTVTSSTWPSQSITCNVAHPASSTKVDKKIEPRGPTIKPCPPCKCPAPNLLGGPSVFIFPPKIKDVLMISLSPIVTCVVVDVSEDDPDVQISWFVNNVEVHTAQTQTHREDYNSTLRVVSALPIQHQDWMSGKEFKCKVNNKDLPAPIERTISKPKGSVRAPQVYVLPPPEEEMTKKQVTLTCMVTDFMPEDIYVEWTNNGKTELNYKNTEPVLDSDGSYFMYSKLRVEKKNWVERNSYSCSVVHEGLHNHHTTKSFSRTPG
modifications: Mus Musculus
B2: 136.1(TPP-2194): reference anti-TWEAKR antibody, murine IgG2a, from WO2009/020933; SEQ ID NO 123/124 (protein)
light: B1 light with A12T, K24R, T33S, S47P, S56T, K57N, T87A, L98I, R107K
heavy: EVKLEESGGGLVQPGGSMKLSCVASGFTFNNYWMSWVRQSPEKGLEWLAEIRLKSDNYATHYAESVKGKFTISRDDSKSRLYLQMNNLRAENTGIYYCTGGFADYFDYWGQGTTLTVSSAKTTAPSVYPLAPVCGDTTGSSVTLGCLVKGYFPEPVTLTWNSGSLSSGVHTFPAVLQSDLYTLSSSVTVTSSTWPSQSITCNVAHPASSTKVDKKIEPRGPTIKPCPPCKCPAPNLLGGPSVFIFPPKIKDVLMISLSPIVTCVVVDVSEDDPDVQISWFVNNVEVHTAQTQTHREDYNSTLRVVSALPIQHQDWMSGKEFKCKVNNKDLPAPIERTISKPKGSVRAPQVYVLPPPEEEMTKKQVTLTCMVTDFMPEDIYVEWTNNGKTELNYKNTEPVLDSDGSYFMYSKLRVEKKNWVERNSYSCSVVHEGLHNHHTTKSFSRTPG
modifications: Mus Musculus
B3: P2D3(TPP-2196): reference anti-TWEAKR antibody, murine IgG2a, from WO2009/140177; SEQ ID NO 131/132 (protein)
light: DIVLTQSPASLAVSLGQRATISCRASKSVSTSSYSYMHWYQQKPGQPPKLLIKYTSNLESGVPARFSGSGSGTDFILNIHPVEEEDAATYYCQHSRELPWTFGGGTKLEIKRADAAPTVSIFPPSSEQLTSGGASVVCFLNNFYPKDINVKWKIDGSERQNGVLNSWTDQDSKDSTYSMSSTLTLTKDEYERHNSYTCEATHKTSTSPIVKSFNRNEC
heavy: QVSLKESGPGILQPSQTLSLTCSFSGFSLSTSGMGVSWIRQPSGKGLEWLAHIYWDDDKRYNPSLKSRLTISKDTSRNQVFLKITSVDTADTATYYCARRGPDYYGYYPMDYWGQGTSVTVSAKTTAPSVYPLAPVCGDTTGSSVTLGCLVKGYFPEPVTLTWNSGSLSSGVHTFPAVLQSDLYTLSSSVTVTSSTWPSQSITCNVAHPASSTKVDKKIEPRGPTIKPCPPCKCPAPNLLGGPSVFIFPPKIKDVLMISLSPIVTCVVVDVSEDDPDVQISWFVNNVEVHTAQTQTHREDYNSTLRVVSALPIQHQDWMSGKEFKCKVNNKDLPAPIERTISKPKGSVRAPQVYVLPPPEEEMTKKQVTLTCMVTDFMPEDIYVEWTNNGKTELNYKNTEPVLDSDGSYFMYSKLRVEKKNWVERNSYSCSVVHEGLHNHHTTKSFSRTPG
modifications: Mus Musculus

Columns and labels:
[1] = target: T1, TWEAKR-Fc mutein T33Q (TPP-1986) (Homo sapiens, UniProt Q9NP84, T33Q); assay: ELISA mutein binding; conditions: coating 62 ng/ml; biotinylated IgG from 100 nM; read-out: IC50 of antibody binding, T33Q
T1 construct: the full ectodomain (amino acids 28-80) with the following single amino acid substitutions; made in house
Description: (§1) Therefore, the full ectodomain (amino acids 28-80) with the following single amino acid substitutions were expressed and purified as Fc fusion proteins: T33Q; S40R; W42A; M50A; R56P; H60K; L65Q.
(§2) To collect dose-response data, the different TWEAKR-Fc muteins were coated with a low concentration (62 ng/ml) in a 384-well Maxisorb ELISA plate and a serial 2fold dilution of biotinylated IgG starting with a concentration of 100 nM was used as soluble binding partner. Detection was done with Streptavidin-HRP and Amplex Red.
(§3) IgGs were biotinylated using an approximately 2-fold molar excess of biotin-LC-NHS (Pierce; Cat. No. 21347) according to manufacturer's instructions and desalted using Zeba desalting columns (Pierce; Cat. No. 89889). The dose-response data were fitted and IC50s determined.

[2] = target: T2, TWEAKR-Fc mutein H60K (TPP-1989) (Homo sapiens, UniProt Q9NP84, H60K); assay: ELISA mutein binding; conditions: coating 62 ng/ml; biotinylated IgG from 100 nM; read-out: IC50 of antibody binding, H60K
T2 construct: the full ectodomain (amino acids 28-80) with the following single amino acid substitutions; made in house
Description: as §1, §2, §3

[3] = target: T3, TWEAKR-Fc mutein L65Q (TPP-1990) (Homo sapiens, UniProt Q9NP84, L65Q); assay: ELISA mutein binding; conditions: coating 62 ng/ml; biotinylated IgG from 100 nM; read-out: IC50 of antibody binding, L65Q
T3 construct: the full ectodomain (amino acids 28-80) with the following single amino acid substitutions; made in house
Description: as §1, §2, §3

[4] = target: T4, TWEAKR-Fc mutein M50A (TPP-1988) (Homo sapiens, UniProt Q9NP84, M50A); assay: ELISA mutein binding; conditions: coating 62 ng/ml; biotinylated IgG from 100 nM; read-out: IC50 of antibody binding, M50A
T4 construct: the full ectodomain (amino acids 28-80) with the following single amino acid substitutions; made in house
Description: as §1, §2, §3

[5] = target: T5, TWEAKR-Fc mutein R56P (TPP-2683) (Homo sapiens, UniProt Q9NP84, R56P); assay: ELISA mutein binding; conditions: coating 62 ng/ml; biotinylated IgG from 100 nM; read-out: IC50 of antibody binding, R56P
T5 construct: the full ectodomain (amino acids 28-80) with the following single amino acid substitutions; made in house
Description: as §1, §2, §3

TWEAKR-Fc WT (TPP-599) = target: T6, TWEAKR-Fc WT (TPP-599) (Homo sapiens, UniProt Q9NP84); assay: ELISA mutein binding; conditions: coating 62 ng/ml; biotinylated IgG from 100 nM; read-out: IC50 of antibody binding, WT
T6 construct: TPP-599; HUMAN-TNFRSF12Aaa28-80-hIgG1-Fc; 138; made in house
Description: as §1, §2, §3

[6] = target: T7, TWEAKR-Fc mutein S40R (TPP-1987) (Homo sapiens, UniProt Q9NP84, S40R); assay: ELISA mutein binding; conditions: coating 62 ng/ml; biotinylated IgG from 100 nM; read-out: IC50 of antibody binding, S40R
T7 construct: the full ectodomain (amino acids 28-80) with the following single amino acid substitutions; made in house
Description: as §1, §2, §3

[7] = target: T8, TWEAKR-Fc mutein W42A (TPP-1985) (Homo sapiens, UniProt Q9NP84, W42A); assay: ELISA mutein binding; conditions: coating 62 ng/ml; biotinylated IgG from 100 nM; read-out: IC50 of antibody binding, W42A
T8 construct: the full ectodomain (amino acids 28-80) with the following single amino acid substitutions; made in house
Description: as §1, §2, §3

[8] = target: T9, TWEAKR protein (TPP-2305) (Homo sapiens, UniProt Q9NP84); assay: Biacore monovalent KD with TWEAKR protein; assay type: binding; conditions: for ka / kd: first order 1:1 binding model
T9 construct: TPP-2305; hTNFRSF12Aaa28-80; Human; 30R-AT080; 168; purchased Fitzgerald Inc 30R-AT080
Description: Binding affinities of anti-TWEAKR antibodies were determined by surface plasmon resonance analysis on a Biacore T100 instrument (GE Healthcare Biacore, Inc.). Antibodies were immobilized onto a CM5 sensor chip through an indirect capturing reagent, anti-human IgG(Fc). Reagents from the “Human Antibody Capture Kit” (BR-1008-39, GE Healthcare Biacore, Inc.) were used as described by the manufacturer. Anti-TWEAKR antibodies were injected at a concentration of 10 μg/ml at 10 μl/min for 10 sec.
Sensorgrams were generated after in-line reference cell correction followed by buffer sample subtraction. The dissociation equilibrium constant (KD) was calculated based on the ratio of association (kon) and dissociation rated (koff) constants, obtained by fitting sensorgrams with a first order 1:1 binding model.

TWEAKR = TWEAKR (Homo sapiens, UniProt Q9NP84); conditions: published data; read-out: KD / binding affinity to TWEAKR (published); cited from earlier work

Row | Molecule | IC50 [1] [nM] | IC50 [2] [nM] | IC50 [3] [nM] | IC50 [4] [nM] | IC50 [5] [nM] | IC50 (TWEAKR-Fc WT (TPP-599)) [nM] | IC50 [6] [nM] | IC50 [7] [nM] | ka [8] [M⁻¹ s⁻¹] | kd [8] [s⁻¹] | Kd (TWEAKR) [nM] | Kd ([8]; monovalent KD) [nM]
1 | B1 | 0.001 to 0.15 | 0.001 to 0.15 | 0.001 to 0.15 | 0.001 to 0.15 | > 50 | 0.001 to 0.15 | 0.001 to 0.15 | > 50 | 1.64e+07 | 0.0285 | 0.2 | –
2 | B2 | 0.001 to 0.15 | 0.001 to 0.15 | 0.001 to 0.15 | 0.001 to 0.15 | > 50 | 0.001 to 0.15 | 0.001 to 0.15 | > 50 | 3.84e+07 | 0.0324 | 0.7 | –
3 | B3 | – | – | – | – | – | – | – | – | 1.32e+06 | 0.000564 | – | 0.4
